Assay results from paper PMC2993699.
One block for each substance: values may come before it.

How the values were obtained:
[1] = biological target: Pph with a C-terminal strep-tag and an N-terminal his-tag (His10-Ppr(Δ1-601)-StrepTag II, pET16b-Pph) (R. centenaria); experiment: SEC; crude soluble extract of E. coli C41 (DE3) with pET16b-Pph on Sephadex G-200, non-reducing conditions, 20 mM Tris pH 7.4, 40 mM NaCl, 20% glycerol; fractions by SDS-PAGE and Western blot against strep tag II
[2] = biological target: Pph with a C-terminal strep-tag and an N-terminal his-tag (His10-Ppr(Δ1-601)-StrepTag II, pET16b-Pph) (R. centenaria); experiment: resonant mirror spectroscopy (Iasys biosensor cuvette); purified Pph (50 μg/ml) immobilised on an aminosilane cuvette (via strep-tag to streptactin by the results); increasing concentrations of purified Rc-CheW, 30 minutes each; fractional saturation, Scatchard plot
[3] = biological target: R. centenaria CheW (Rc-CheW) containing an N-terminal his-tag (R. centenaria) (UniProt P72251); experiment: pull-down; as a1, residual ATP hydrolyzed by adding apyrase
[4] = biological target: R. centenaria CheW (Rc-CheW) containing an N-terminal his-tag (R. centenaria) (UniProt P72251); experiment: pull-down; as a1, with increasing amounts of added ATP (0-20 mM)
[5] = biological target: R. centenaria CheW (Rc-CheW) containing an N-terminal his-tag (R. centenaria) (UniProt P72251); experiment: pull-down; 50 μg purified his-Rc-CheW (bait) mixed with one in vitro translated [35S]-labelled prey, overnight at 37°C, bound to Cu(II)-Sepharose in 20 mM sodium phosphate pH 7.7, 200 mM NaCl, 50 mM imidazole; eluted with 500 mM imidazole; phosphorimaging; no ATP added (low ATP level, 2 mM, from the translation reaction)

Chain of UniProt P72251 (P72251 entry or part of it): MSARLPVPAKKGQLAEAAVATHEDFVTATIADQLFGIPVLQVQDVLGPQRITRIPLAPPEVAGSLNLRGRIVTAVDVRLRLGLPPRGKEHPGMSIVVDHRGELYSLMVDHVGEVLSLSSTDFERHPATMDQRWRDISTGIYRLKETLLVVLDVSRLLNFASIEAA

stoichiometry N [1]: 2
Substance: Pph with a C-terminal strep-tag and an N-terminal his-tag (His10-Ppr(Δ1-601)-StrepTag II, pET16b-Pph) (domain or fragment)

Kd [2]: 130 nM
Substance: R. centenaria CheW (Rc-CheW) containing an N-terminal his-tag (from UniProt P72251 1-165) (natural protein)

bound Pph with apyrase (% of input) [3]: 5% | Rc-CheW-bound Pph with added ATP (% of input) [4]: 24% | co-elution rate (% of input Pph) [5]: 13%
Substance: histidine kinase domain Pph of Ppr, in vitro translated and [35S]-methionine labelled (from pSK4) (domain or fragment)
